Laboratory results taken from paper PMC10481361, “Structural insight into G-protein chaperone-mediated maturation of a bacterial adenosylcobalamin-dependent mutase” (The Journal of Biological Chemistry, 2023).
Numbering of substitutions follows the chain as printed. Numbers in names are those of the source.

How the values were obtained:
[1] = target: T1, IcmF (isobutyryl-CoA mutase fused) (Cupriavidus metallidurans, UniProt Q1LRY0, Q341A); assay: cryo-EM, […] Å; type: binding; settings: sample prepared with 500 μM GTP, 2 μM enzyme; GDP modelled at each nucleotide site of the G-protein domain; Mg2+ in chain A
T1 construct: resting homodimer; oligomerizes with GTP/GMPPCP; modelled residues 22-1093

[2] = target: T2, IcmF (isobutyryl-CoA mutase fused) (Cupriavidus metallidurans, UniProt Q1LRY0); assay: negative stain EM of oligomers; type: binding; settings: 500 μM GMPPNP; pH 8; with hydroxocobalamin or photolysed AdoCbl; weaker oligomerization agonist than GMPPCP
T2 construct: resting homodimer; oligomerizes with GTP/GMPPCP; modelled residues 22-1093
T2 sequence (Q1LRY0 1-1093): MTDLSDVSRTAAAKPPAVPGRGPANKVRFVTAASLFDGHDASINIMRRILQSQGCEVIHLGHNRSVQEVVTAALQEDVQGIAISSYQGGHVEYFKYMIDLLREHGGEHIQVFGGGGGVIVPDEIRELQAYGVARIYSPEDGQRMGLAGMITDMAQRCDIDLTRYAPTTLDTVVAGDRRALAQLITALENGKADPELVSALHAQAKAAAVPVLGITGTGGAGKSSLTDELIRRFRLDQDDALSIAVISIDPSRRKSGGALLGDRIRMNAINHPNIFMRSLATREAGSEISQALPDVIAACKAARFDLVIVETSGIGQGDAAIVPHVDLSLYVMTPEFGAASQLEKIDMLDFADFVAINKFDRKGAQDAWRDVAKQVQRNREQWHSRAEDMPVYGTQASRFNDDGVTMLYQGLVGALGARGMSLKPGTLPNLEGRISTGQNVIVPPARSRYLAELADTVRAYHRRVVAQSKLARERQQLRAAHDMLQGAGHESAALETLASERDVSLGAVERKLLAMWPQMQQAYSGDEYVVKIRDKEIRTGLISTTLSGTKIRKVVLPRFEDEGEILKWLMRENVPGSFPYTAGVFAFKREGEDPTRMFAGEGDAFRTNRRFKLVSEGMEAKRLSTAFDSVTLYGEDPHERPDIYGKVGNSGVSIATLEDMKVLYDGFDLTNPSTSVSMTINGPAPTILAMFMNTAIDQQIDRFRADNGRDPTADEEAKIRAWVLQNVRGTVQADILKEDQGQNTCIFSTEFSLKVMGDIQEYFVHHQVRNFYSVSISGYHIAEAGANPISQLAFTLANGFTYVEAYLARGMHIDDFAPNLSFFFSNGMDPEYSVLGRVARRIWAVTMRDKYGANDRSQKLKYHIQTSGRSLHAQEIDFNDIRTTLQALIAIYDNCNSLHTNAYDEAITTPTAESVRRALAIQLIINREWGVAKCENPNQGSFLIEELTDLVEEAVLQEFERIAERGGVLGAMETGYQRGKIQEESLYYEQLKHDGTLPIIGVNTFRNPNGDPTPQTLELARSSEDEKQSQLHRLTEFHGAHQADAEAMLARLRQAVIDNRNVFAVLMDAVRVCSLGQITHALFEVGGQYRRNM

[3] = substrate: Nc1nc2c(ncn2[C@@H]2O[C@H](COP(=O)(O)OP(=O)(O)OP(=O)(O)O)[C@@H](O)[C@H]2O)c(=O)[nH]1; assay: purified protein; type: biochemical, Cupriavidus metallidurans; settings: GTPase, 0.5 μM enzyme, 23 °C, GTP 2–1500 μM
[4] = target: the molecule itself; assay: negative stain EM; 20 ng/μl wt IcmF in 20 mM Hepes pH 8, 50 mM NaCl, no nucleotide or 500 μM GDP (30 min on ice); dimer seen, dimer with dimer not seen
[5] = target: the molecule itself; assay: cryo-EM structure; 2 μM Q341A IcmF, 500 μM GTP in SEC buffer; 4.6 Å reconstruction, three protomers modelled

T1 sequence (Q1LRY0 whole entry Q341A, the tested form may be a part): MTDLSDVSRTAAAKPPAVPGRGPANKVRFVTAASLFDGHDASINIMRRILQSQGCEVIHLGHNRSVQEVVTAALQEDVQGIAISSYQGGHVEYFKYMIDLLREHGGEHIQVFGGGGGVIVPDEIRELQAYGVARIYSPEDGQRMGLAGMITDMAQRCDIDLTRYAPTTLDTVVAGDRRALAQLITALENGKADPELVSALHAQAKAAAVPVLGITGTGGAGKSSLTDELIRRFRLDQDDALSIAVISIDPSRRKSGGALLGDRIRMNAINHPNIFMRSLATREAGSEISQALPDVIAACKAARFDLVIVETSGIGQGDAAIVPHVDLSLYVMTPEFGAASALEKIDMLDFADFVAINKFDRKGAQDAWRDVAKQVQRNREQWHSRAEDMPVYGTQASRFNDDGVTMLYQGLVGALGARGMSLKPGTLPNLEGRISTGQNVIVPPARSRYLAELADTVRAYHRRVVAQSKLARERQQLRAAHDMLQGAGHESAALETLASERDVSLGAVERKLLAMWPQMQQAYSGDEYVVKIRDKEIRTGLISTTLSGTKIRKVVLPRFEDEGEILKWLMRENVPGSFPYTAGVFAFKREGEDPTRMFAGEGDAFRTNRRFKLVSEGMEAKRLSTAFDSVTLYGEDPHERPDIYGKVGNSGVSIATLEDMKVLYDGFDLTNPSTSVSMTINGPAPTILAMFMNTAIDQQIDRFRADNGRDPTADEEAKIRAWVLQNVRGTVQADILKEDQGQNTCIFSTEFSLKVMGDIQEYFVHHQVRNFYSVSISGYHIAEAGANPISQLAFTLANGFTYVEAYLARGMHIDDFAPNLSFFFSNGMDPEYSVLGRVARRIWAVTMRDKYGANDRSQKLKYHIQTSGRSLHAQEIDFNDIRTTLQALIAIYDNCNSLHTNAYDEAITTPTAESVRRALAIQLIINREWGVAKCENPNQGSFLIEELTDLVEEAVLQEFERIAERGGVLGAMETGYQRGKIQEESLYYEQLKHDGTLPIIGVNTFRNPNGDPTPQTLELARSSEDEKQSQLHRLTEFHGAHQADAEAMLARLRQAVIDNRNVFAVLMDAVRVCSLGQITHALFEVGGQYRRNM

## Nc1nc2c(ncn2[C@@H]2O[C@H](COP(=O)(O)OP(=O)(O)O)[C@@H](O)[C@H]2O)c(=O)[nH]1 [GDP]
[1]
  cryo-EM, 4.6 Å: there was clear density for GDP at each nucleotide-binding site

## Nc1nc2c(ncn2[C@@H]2O[C@H](COP(=O)(O)OP(=O)(O)NP(=O)(O)O)[C@@H](O)[C@H]2O)c(=O)[nH]1 [GMPPNP]
[2]
  negative stain EM of oligomers: Photolysis of AdoCbl leads to more supramolecular complex formation but not as many as in the GMPPNP + OHCbl

B1: Cupriavidus metallidurans isobutyryl-CoA mutase fused (IcmF), wild type (enzyme, UniProt Q1LRY0 1-1093, looked up)
chain: T2 sequence (Q1LRY0 1-1093)
notes: Isobutyryl-CoA mutase fused (IcmF) of Cupriavidus metallidurans; Resting state is a homodimer; dimers join through their G-protein domains into higher-order oligomers; The plasmid has a thrombin cleavage site after the His-tag; no cleavage is described; also called wt IcmF; cmIcmF; source: E. coli BL21 T7 Express, purified (Ni-NTA, MonoQ, SEC)
[3]
  Km: 2.4 ± 0.9 µM
  Vmax: 1.57 µM/min
  kcat: 0.0522 ± 0.003 s⁻¹
  kcat/Km: 21700 M⁻¹ s⁻¹
[4]
  stoichiometry N: 2

B2: Cupriavidus metallidurans isobutyryl-CoA mutase fused (IcmF), Q341A switch III variant (enzyme, UniProt Q1LRY0 1-1093, looked up)
chain: T2 sequence (Q1LRY0 1-1093) with Q341A
notes: Isobutyryl-CoA mutase fused (IcmF) of Cupriavidus metallidurans with Q341A in the switch III region of the G-protein domain; also called Q341A IcmF; source: E. coli BL21 T7 Express, purified (Ni-NTA, MonoQ, SEC)
[3]
  Km: 2.2 ± 0.8 µM
  Vmax: 0.533 µM/min
  kcat: 0.0178 ± 0.00117 s⁻¹
  kcat/Km: 8170 M⁻¹ s⁻¹
[5]
  binding result: binds
